Data on one protein can be found in PMC6131172, “The first crystal structure of a DNA-free nuclear receptor DNA binding domain sheds light on DNA-driven allostery in the glucocorticoid receptor” (Scientific Reports, 2018).

This data set concerns the molecule itself. The experiment in a line: crystal structure; hanging drop vapor diffusion at 18 °C; 25% PEG3350, 50 mM Tris pH8.5, 200 mM di-sodium tartrate; no reducing agents present; space group P1, eight molecules in the asymmetric unit.

B1: glucocorticoid receptor (GR) DNA binding domain (DBD), residues 418–517 (domain or fragment, UniProt P04150 418-517, looked up)
chain: PKLCLVCSDEASGCHYGVLTCGSCKVFFKRAVEGQHNYLCAGRNDCIIDKIRRKNCPACRYRKCLQAGMNLEARKTKKKIKGIQQATTGVSQETSENPGN
notes: In the crystal two molecules are linked by a disulfide bridge via Cys431 (no reducing agents during crystallization); Each molecule holds two Zn2+; Mixed with a 35 nt RNA hairpin before crystallization, but no nucleic acid was found in the crystal; also called GR DBD; free GR DBD; not shown: His6-Sumo, N-terminal, cleaved
Consider B1, for which the binding result is recorded as “binds”.
